Laboratory results reported in patent US20210163606A1.

target: Human NRP2 (aa23-855) with C-terminal Avi-, Myc- and His-tags (Human) (UniProt O60462); assay: SPR as described for Table E1 (human NRP2 antigen); the antigen for this mouse-IgG1 surrogate is not said separately

| Binder | Kd [nM] |
| --- | --- |
| aNRP2-28v2/4 (antibody, V domains shown) VH: QSVKESEGGLFKPTDTLTLTCTVSGFSLSTYSISWVRQAPGNGLEWIGIIGDAGGIIYATWAKSRSTITRSTALNTVTLKMTGLTAADTATYFCARDGTAFDIWGPGTLVTVSS VL: AYDMTQTPASVEVVVGGTVTIKCQASQSIYSKLGWYQQKPGQPPKLLIYRASTLASGVSSRFKGSGSGTEYTLTISGVQCDDAATYYCQQDYSYINVDNIFGGGTEVVVK | 0.0599 |

target: Human NRP2 (aa23-855) with C-terminal Avi-, Myc- and His-tags (Human) (UniProt O60462); assay: SPR (ProteOn XPR36), antibody captured on anti-human Fab-kappa, NRP2 as analyte, 1:1 Langmuir fit

| Binder | Kd [nM] |
| --- | --- |
| aNRP2-14v9 (antibody, V domains shown) VH: QLQLVESGGGVVQPGRSLRLSCTVSGFSLTSYGVHWVRQAPGKGLEWVGLIWSGGSTDYSPAFISRFTISEDNSKSTVYLQMNSLRAEDTAVYFCARNSYSSGYYAMDYWGQGTTVTVSS VL: DIQLTQSPSFLSASVGDRVTITCKASQNVGHAVAWYQQKPGKAPKLLIYSASNRYTGVPSRFSGSGSGTEFTLTISSLQPEDFATYYCQQYSRYPPYTFGGGTKVEIK | 0.15 |
| aNRP2-2v4 (antibody, V domains shown) VH: QVQLVQSGAEVKKPGASVKVSCKASGYTFTSYWMHWVRQAPGQGLEWMGVIHPNSASTFYNERFKTRATMTVDRSSSTAYMELSSLRSEDTAVYYCSRPGTVRRSDYWGQGTTVTVSS VL: DVVMTQSPLSLPVTLGQPASISCRSSQNIVHSTGNTYLEWYQQRPGQSPRLLIYKVSNRFSGVPDRFSGSGSGTDFTLKISRVEAEDVGVYYCFQGSHVPWTFGGGTKVEIK | 2.7 |
| aNRP2-10v5 (antibody, V domains shown) VH: EVQLVQSGAEVKKPGATVKISCKVSGFNIKDYYIHWVQQAPGKGLEWMGRIDVEDDETKYAPKFQGRVTITADTSTDTAYMELSSLRSEDTAVYYCATPIYGSREAWFAYWGQGTLVTVSS VL: DIQMTQSPSSLSASVGDRVTITCTASSSVSSSYLHWYQQKPGKAPKLLIYRTSNLASGVPSRFSGSGSGTDFTLTISSLQPEDFATYYCHQYYRSPPTFGGGTKVEIK | 0.2 |
| aNRP2-10v10 (antibody, V domains shown) VH: EVQLVQSGAEVKKPGATVKISCKVSGFNIKDYYVHWVQQAPGKGLEWMGRIDVEDDETKYAPKFQGRVTITADTSTDTAYMELSSLRSEDTAVYYCATPIYGAREAWFAYWGQGTLVTVSS VL: DIQMTQSPSSLSASVGDRVTITCTASSSVSSSYLHWYQQKPGKAPKLLIYRTSNLASGVPSRFSGSGSGTDFTLTISSLQPEDFATYYCHQYYRSPPTFGGGTKVEIK | 0.029 |

More lines, now with the values ahead:

| Kd [nM] | Binder |
| --- | --- |
| 0.95 | aNRP2-11v7 (antibody, V domains shown) VH: QVQLVQSGAEVKKPGASVKVSCKASGYTFTSFGISWVRQAPGQGLEWIGEIYPRSGNTYYNENFKGRATMTADKSTSTAYMELRSLRSDDTAVYYCARSSGYYGSTPFPYWGQGTLVTVSS VL: DIQMTQSPSSLSASVGDRVTITCRASQDISNYLNWYQQKPGKAVKLLIYYTSRLHSGVPSRFSGSGSGTDYTFTISSLQPEDIATYYCQQGNTLPWTFGGGTKVEIK |
| 17 | aNRP2-1v3 (antibody, V domains shown) VH: QVQLVQSGAEVKKPGASVKVSCKASGYTFTSYWMHWVRQAPGQGLEWMGAIYPGNSDTSYNQQFKGRVTMTRDTSTSTVYMELSSLRSEDTAVYYCARRGGGYFDYWGQGTLVTVSS VL: DIQLTQSPSFLSASVGDRVTITCKASQNVGAAVAWYQQKPGKAPKLLIYSASNRYTGVPSRFSGSGSGTEFTLTISSLQPEDFATYYCQQYSSYPLLTFGGGTKVEIK |
| 0.17 | aNRP2-14v10 (antibody, V domains shown) VH: QLQLVESGGGVVQPGRSLRLSCTVSGFSLTSYGVHWVRQAPGKGLEWVGLIWSGGSTDYSPAFISRFTISEDNSKSTVYLQMNSLRAEDTAVYFCARNSYSSGYYAMDYWGQGTTVTVSS VL: DIQLTQSPSFLSASVGDRVTITCKASQNVGTAVAWYQQKPGKAPKLLIYSASNRYTGVPSRFSGSGSGTEFTLTISSLQPEDFATYYCQQRSRYPPYTFGGGTKVEIK |
| 0.358 | aNRP2-10v13 (antibody, V domains shown) VH: EVQLVQSGAEVKKPGATVKISCKVSGFNIKDYYVHWVQQAPGKGLEWMGRIDVHDDETKYAPKFQGRVTITADTSTDTAYMELSSLRSEDTAVYYCATPIYGAREAWFAYWGQGTLVTVSS VL: DIQMTQSPSSLSASVGDRVTITCTASSSVSSSYLHWYQQKPGKAPKLLIYRTSNLASGVPSRFSGSGSGTDFTLTISSLQPEDFATYYCHQYYRSPPTFGGGTKVEIK |
